Laboratory results from the supplement of paper PMC10567573.

B1: TRIM29 (parent)
chain: FAEKGELRKSIFSESRKPTVSIME

Variants of: B1
Assay: protein stability index of a GFP-peptide fusion (GPS, HEK-293T) (PSI 1-6); higher = more stable
Conditions: c terminus: a fixed tail appended
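Further: lentivirally expressed fusions sorted by FACS into six bins by GFP to DsRed ratio, PSI derived from sequencing read proportions per bin multiplied by bin number.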

Protein stability index, by site and new letter:
R8: M 1.81 | G 1.56 | S 1.47 | D 2.55 | I 2.81 | T 2 | E 2 | N 2.44 | V 2.74 | K 2.23 | A 3.85 | L 2.32 | Y 2.54 | C 2.08 | Q 1.93 | P 1.89 | W 2.85 | H 1.54 | F 2.64
S13: F 2.01 | K 2.21 | A 2.1 | V 2.58 | Q 1.75 | D 2.42 | P 3.18 | E 2.71 | Y 2.08 | I 1.45 | H 1.64 | W 2.55 | N 1.75 | G 1.7 | T 1.87 | L 1.84 | M 2.76 | C 1.67 | R 2.19
S15: L 1.96 | Q 2.1 | W 2.29 | C 1.59 | R 1.3 | G 1.8 | T 2.31 | F 2.3 | A 1.75 | E 2.01 | K 2 | D 2.26 | N 1.64 | V 2.3 | I 1.56 | M 2.04 | H 1.52 | P 2.71
I11: V 1.86 | K 3.22 | W 2.77 | F 2.74 | R 2.71 | E 3.26 | S 3.09 | G 3.92 | M 1.53 | Y 1.7 | D 3.69 | C 1.64 | H 2.97 | T 2.65 | P 2.51 | N 3.35 | A 2.05 | L 1.9 | Q 3.33
K9: F 1.39 | Y 2.36 | S 1.88 | I 3.48 | C 3.57 | R 2.62 | G 2.3 | V 2.74 | M 2.02 | L 3.5 | E 1.84 | Q 1.8 | T 1.93 | D 1.85 | N 1.87 | P 2.23 | A 1.77 | H 2.16
F12: E 3.84 | R 3.66 | P 3.96 | S 3.69 | M 3.49 | N 3.43 | Q 3.72 | T 3.54 | C 2.96 | G 2.59 | L 2.41 | W 1.14 | K 3.54 | D 4.25 | V 3.1 | Y 2.04 | A 2.74 | I 3.39 | H 4.04
E14: H 2.05 | C 2.21 | G 1.78 | L 1.91 | I 2.32 | F 1.85 | M 1.59 | D 1.54 | R 1.49 | S 2.31 | Q 1.54 | N 1.95 | K 1.99 | A 2.01 | V 2.05 | T 2.63 | P 3.31 | W 1.76 | Y 1.7
S10: T 1.82 | G 2 | K 2.17 | E 2.12 | V 2.46 | Y 2.04 | R 1.35 | W 2.35 | L 1.47 | C 1.53 | H 1.84 | A 1.91 | D 2.12 | P 2.27 | N 1.76 | Q 1.52 | I 2.48 | M 2.12 | F 2.32
L7: Q 2.31 | P 2.52 | I 2.18 | W 3.9 | V 1.62 | H 2.44 | R 1.82 | T 2.32 | N 1.55 | Y 2.08 | S 2.22 | D 1.78 | M 2.02 | K 1.7 | F 2.21 | G 1.46 | E 3.15
